In publication PMC10716038, “Talin and kindlin use integrin tail allostery and direct binding to activate integrins” (Nature Structural & Molecular Biology, 2023):

B1: talin-1 head domain (THD1) [not stated] / ATTO 488-labelled β3-CT (488–β3-CT) [modified: ATTO 488 at the N terminus; ATTO 488 at the N terminus] [not stated] (parent)
chain 1: MVALSLKISIGNVVKTMQFEPSTMVYDACRMIRERIPEALAGPPNDFGLFLSDDDPKKGIWLEAGKALDYYMLRNGDTMEYRKKQRPLKIRMLDGTVKTIMVDDSKTVTDMLMTICARIGITNHDEYSLVRELMEEKKDEGTGTLRKDKTLLRDEKKMEKLKQKLHTDDELNWLDHGRTLREQGVEEHETLLLRRKFFYSDQNVDSRDPVQLNLLYVQARDDILNGSHPVSFDKACEFAGFQCQIQFGPHNEQKHKAGFLDLKDFLPKEYVKQKGERKIFQAHKNCGQMSEIEAKVRYVKLARSLKTYGVSFFLVKEKMKGKNKLVPRLLGITKECVMRVDEKTKEVIQEWSLTNIKRWAASPKSFTLDFGDYQDGYYSVQTTEGEQIAQLIAGYIDIILKKKKS
chain 2: KLLITIHDRKEFAKFEEERARAKWDTANNPLYKEATSTFTNITYRGT

Variants of: B1
Assay: MST
Settings: with ATTO 488-labelled β3-CT (488–β3-CT) [modified: ATTO 488 at the N terminus, 30-40 µM KIND2, n = 2, read off a plot

| Variant | screen value |
| --- | --- |
| chain 1 MVALSLKISIGNVVKTMQFEPSTMVYDACRMIRERIPEALAGPPNDFGLFLSDDDPKKGIWLEAGKALDYYMLRNGDTMEYRKKQRPLKIRMLDGTVKTIMVDDSKTVTDMLMTICARIGITNHDEYSLVRELMEEKKDEGTGTLRKDKTLLRDEKKMEKLKQKLHTDDELNWLDHGRTLREQGVEEHETLLLRRKFFYSDQNVDSRDPVQLNLLYVQARDDILNGSHPVSFDKACEFAGFQCQIQFGPHNEQKHKAGFLDLKDFLPKEYVKQKGERKIFQAHKNCGQMSEIEAKVRYVKLARSLKTYGVSFFLVKEKMKGKNKLVPRLLGITKECVMRVDEKTKEVIQEWSLTNIKRWAASPKSFTLDFGDYQDGYYSVQTTEGEQIAQLIAGYIDIILAKKKS [chain 1 K401A] | 0.55 |
| chain 1 MVALSLKISIGNVVKTMQFEPSTMVYDACRMIRERIPEALAGPPNDFGLFLSDDDPKKGIWLEAGKALDYYMLRNGDTMEYRKKQRPLKIRMLDGTVKTIMVDDSKTVTDMLMTICARIGITNHDEYSLVRELMEEKKDEGTGTLRKDKTLLRDEKKMEKLKQKLHTDDELNWLDHGRTLREQGVEEHETLLLRRKFFYSDQNVDSRDPVQLNLLYVQARDDILNGSHPVSFDKACEFAGFQCQIQFGPHNEQKHKAGFLDLKDFLPKEYVKQKGERKIFQAHKNCGQMSEIEAKVRYVKLARSLKTYGVSFFLVKEKMKGKNKLVPRLLGITKECVMRVDEKTKEVIQEWSLTNIKRWAASPKSFTLDFGDYQDGYYSVQTTEGEQIAQLIAGYIDIALKKKKS [chain 1 I399A] | 0.93 |
| chain 1 MVALSLKISIGNVVKTMQFEPSTMVYDACRMIRERIPEALAGPPNDFGLFLSDDDPKKGIWLEAGKALDYYMLRNGDTMEYRKKQRPLKIRMLDGTVKTIMVDDSKTVTDMLMTICARIGITNHDEYSLVRELMEEKKDEGTGTLRKDKTLLRDEKKMEKLKQKLHTDDELNWLDHGRTLREQGVEEHETLLLRRKFFYSDQNVDSRDPVQLNLLYVQARDDILNGSHPVSFDKACEFAGFQCQIQFGPHNEQKHKAGFLDLKDFLPKEYVKQKGERKIFQAHKNCGQMSEIEAKVRYVKLARSLKTYGVSFFLVKEKMKGKNKLVPRLLGITKECVMRVDEKTKEVIQEWSLTNIKRWAASPKSFTLDFGDYQDGYYSVQTTEGEQIAQLIAGYIDAILKKKKS [chain 1 I398A] | 0.65 |
| chain 1 MVALSLKISIGNVVKTMQFEPSTMVYDACRMIRERIPEALAGPPNDFGLFLSDDDPKKGIWLEAGKALDYYMLRNGDTMEYRKKQRPLKIRMLDGTVKTIMVDDSKTVTDMLMTICARIGITNHDEYSLVRELMEEKKDEGTGTLRKDKTLLRDEKKMEKLKQKLHTDDELNWLDHGRTLREQGVEEHETLLLRRKFFYSDQNVDSRDPVQLNLLYVQARDDILNGSHPVSFDKACEFAGFQCQIQFGPHNEQKHKAGFLDLKDFLPKEYVKQKGERKIFQAHKNCGQMSEIEAKVRYVKLARSLKTYGVSFFLVKEKMKGKNKLVPRLLGITKECVMRVDEKTKEVIQEWSLTNIKRWAASPKSFTLDFGDYQDGYYSVQTTEGEQIAQLIAGYIDIILKAAKS [chain 1 K402A K403A] | 0.7 |
| chain 1 MVALSLKISIGNVVKTMQFEPSTMVYDACRMIRERIPEALAGPPNDFGLFLSDDDPKKGIWLEAGKALDYYMLRNGDTMEYRKKQRPLKIRMLDGTVKTIMVDDSKTVTDMLMTICARIGITNHDEYSLVRELMEEKKDEGTGTLRKDKTLLRDEKKMEKLKQKLHTDDELNWLDHGRTLREQGVEEHETLLLRRKFFYSDQNVDSRDPVQLNLLYVQARDDILNGSHPVSFDKACEFAGFQCQIQFGPHNEQKHKAGFLDLKDFLPKEYVKQKGERKIFQAHKNCGQMSEIEAKVRYVKLARSLKTYGVSFFLVKEKMKGKNKLVPRLLGITKECVMRVDEKTKEVIQEWSLTNIKRWAASPKSFTLDFGDYQDGYYSVQTTEGEQIAQLIAGYIDIILKAKKS [chain 1 K402A] | 0.45 |
| chain 1 MVALSLKISIGNVVKTMQFEPSTMVYDACRMIRERIPEALAGPPNDFGLFLSDDDPKKGIWLEAGKALDYYMLRNGDTMEYRKKQRPLKIRMLDGTVKTIMVDDSKTVTDMLMTICARIGITNHDEYSLVRELMEEKKDEGTGTLRKDKTLLRDEKKMEKLKQKLHTDDELNWLDHGRTLREQGVEEHETLLLRRKFFYSDQNVDSRDPVQLNLLYVQARDDILNGSHPVSFDKACEFAGFQCQIQFGPHNEQKHKAGFLDLKDFLPKEYVKQKGERKIFQAHKNCGQMSEIEAKVRYVKLARSLKTYGVSFFLVKEKMKGKNKLVPRLLGITKECVMRVDEKTKEVIQEWSLTNIKRWAASPKSFTLDFGDYQDGYYSVQTTEGEQIAQLIAGYADIILKKKKS [chain 1 I396A] | 1 |

Second part, the variant after the results:

| screen value | Variant |
| --- | --- |
| 0.68 | chain 1 MVALSLKISIGNVVKTMQFEPSTMVYDACRMIRERIPEALAGPPNDFGLFLSDDDPKKGIWLEAGKALDYYMLRNGDTMEYRKKQRPLKIRMLDGTVKTIMVDDSKTVTDMLMTICARIGITNHDEYSLVRELMEEKKDEGTGTLRKDKTLLRDEKKMEKLKQKLHTDDELNWLDHGRTLREQGVEEHETLLLRRKFFYSDQNVDSRDPVQLNLLYVQARDDILNGSHPVSFDKACEFAGFQCQIQFGPHNEQKHKAGFLDLKDFLPKEYVKQKGERKIFQAHKNCGQMSEIEAKVRYVKLARSLKTYGVSFFLVKEKMKGKNKLVPRLLGITKECVMRVDEKTKEVIQEWSLTNIKRWAASPKSFTLDFGDYQDGYYSVQTTEGEQIAQLIAGAIDIILKKKKS [chain 1 Y395A] |
| 0.57 | chain 1 MVALSLKISIGNVVKTMQFEPSTMVYDACRMIRERIPEALAGPPNDFGLFLSDDDPKKGIWLEAGKALDYYMLRNGDTMEYRKKQRPLKIRMLDGTVKTIMVDDSKTVTDMLMTICARIGITNHDEYSLVRELMEEKKDEGTGTLRKDKTLLRDEKKMEKLKQKLHTDDELNWLDHGRTLREQGVEEHETLLLRRKFFYSDQNVDSRDPVQLNLLYVQARDDILNGSHPVSFDKACEFAGFQCQIQFGPHNEQKHKAGFLDLKDFLPKEYVKQKGERKIFQAHKNCGQMSEIEAKVRYVKLARSLKTYGVSFFLVKEKMKGKNKLVPRLLGITKECVMRVDEKTKEVIQEWSLTNIKRWAASPKSFTLDFGDYQDGYYSVQTTEGEQIAQLIAGYIDIILKKEKS [chain 1 K403E] |
| 0.5 | chain 1 MVALSLKISIGNVVKTMQFEPSTMVYDACRMIRERIPEALAGPPNDFGLFLSDDDPKKGIWLEAGKALDYYMLRNGDTMEYRKKQRPLKIRMLDGTVKTIMVDDSKTVTDMLMTICARIGITNHDEYSLVRELMEEKKDEGTGTLRKDKTLLRDEKKMEKLKQKLHTDDELNWLDHGRTLREQGVEEHETLLLRRKFFYSDQNVDSRDPVQLNLLYVQARDDILNGSHPVSFDKACEFAGFQCQIQFGPHNEQKHKAGFLDLKDFLPKEYVKQKGERKIFQAHKNCGQMSEIEAKVRYVKLARSLKTYGVSFFLVKEKMKGKNKLVPRLLGITKECVMRVDEKTKEVIQEWSLTNIKRWAASPKSFTLDFGDYQDGYYSVQTTEGEQIAQLIAGYIDIILKKAKS [chain 1 K403A] |
| 1.1 | chain 1 MVALSLKISIGNVVKTMQFEPSTMVYDACRMIRERIPEALAGPPNDFGLFLSDDDPKKGIWLEAGKALDYYMLRNGDTMEYRKKQRPLKIRMLDGTVKTIMVDDSKTVTDMLMTICARIGITNHDEYSLVRELMEEKKDEGTGTLRKDKTLLRDEKKMEKLKQKLHTDDELNWLDHGRTLREQGVEEHETLLLRRKFFYSDQNVDSRDPVQLNLLYVQARDDILNGSHPVSFDKACEFAGFQCQIQFGPHNEQKHKAGFLDLKDFLPKEYVKQKGERKIFQAHKNCGQMSEIEAKVRYVKLARSLKTYGVSFFLVKEKMKGKNKLVPRLLGITKECVMRVDEKTKEVIQEWSLTNIKRWAASPKSFTLDFGDYQDGYYSVQTTEGEQIAQLIAGYIDIIAKKKKS [chain 1 L400A] |
| 0.75 | chain 1 MVALSLKISIGNVVKTMQFEPSTMVYDACRMIRERIPEALAGPPNDFGLFLSDDDPKKGIWLEAGKALDYYMLRNGDTMEYRKKQRPLKIRMLDGTVKTIMVDDSKTVTDMLMTICARIGITNHDEYSLVRELMEEKKDEGTGTLRKDKTLLRDEKKMEKLKQKLHTDDELNWLDHGRTLREQGVEEHETLLLRRKFFYSDQNVDSRDPVQLNLLYVQARDDILNGSHPVSFDKACEFAGFQCQIQFGPHNEQKHKAGFLDLKDFLPKEYVKQKGERKIFQAHKNCGQMSEIEAKVRYVKLARSLKTYGVSFFLVKEKMKGKNKLVPRLLGITKECVMRVDEKTKEVIQEWSLTNIKRWAASPKSFTLDFGDYQDGYYSVQTTEGEQIAQLIAGYIDIILKKKAS [chain 1 K404A] |
